Test results taken from publication PMC4599343 (Archives of biochemistry and biophysics, 2015).

How the values were obtained:
CYP2B6 [1] = target: T1, CYP2B6 (Homo sapiens, UniProt P20813, K262R/Y226H); test: biochemical
T1 sequence (P20813 29-491 Y226H/K262R): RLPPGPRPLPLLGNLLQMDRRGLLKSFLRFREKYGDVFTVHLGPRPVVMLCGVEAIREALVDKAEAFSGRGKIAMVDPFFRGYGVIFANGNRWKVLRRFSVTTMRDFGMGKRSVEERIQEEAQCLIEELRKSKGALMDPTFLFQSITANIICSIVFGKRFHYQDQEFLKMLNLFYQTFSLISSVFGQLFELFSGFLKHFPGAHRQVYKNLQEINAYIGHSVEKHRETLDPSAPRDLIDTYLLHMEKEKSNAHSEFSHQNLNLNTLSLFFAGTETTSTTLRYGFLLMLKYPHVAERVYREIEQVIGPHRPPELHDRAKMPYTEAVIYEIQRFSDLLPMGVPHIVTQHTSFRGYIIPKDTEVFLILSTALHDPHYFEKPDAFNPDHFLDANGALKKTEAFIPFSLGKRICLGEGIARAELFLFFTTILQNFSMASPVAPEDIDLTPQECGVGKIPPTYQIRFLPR

CYP2B6 [2] = target: T2, CYP2B6 (Homo sapiens, UniProt P20813, Y226H/K262R); format: biochemical; conditions: reconstituted purified enzyme
T2 sequence (P20813 29-491 Y226H/K262R): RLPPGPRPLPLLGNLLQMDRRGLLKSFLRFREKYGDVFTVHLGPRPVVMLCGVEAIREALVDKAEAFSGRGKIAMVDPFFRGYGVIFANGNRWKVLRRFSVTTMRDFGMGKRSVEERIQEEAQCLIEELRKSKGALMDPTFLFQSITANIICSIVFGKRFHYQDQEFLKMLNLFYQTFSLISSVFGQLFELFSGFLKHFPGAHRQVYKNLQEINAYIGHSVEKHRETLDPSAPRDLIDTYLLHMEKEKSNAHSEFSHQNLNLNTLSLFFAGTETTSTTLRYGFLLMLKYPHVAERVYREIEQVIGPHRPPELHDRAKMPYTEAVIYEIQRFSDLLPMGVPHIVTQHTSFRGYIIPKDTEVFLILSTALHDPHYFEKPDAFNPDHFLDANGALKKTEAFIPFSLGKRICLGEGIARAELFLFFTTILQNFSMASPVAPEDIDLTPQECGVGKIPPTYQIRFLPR

[3] = substrate: O=c1ccc2nc3ccc(OCc4ccccc4)cc3oc-2c1; test: steady-state O-debenzylation kinetics, reconstituted purified enzyme; format: biochemical, Oryctolagus cuniculus; conditions: heme
[4] = substrate: CCOc1ccc2c(C(F)(F)F)cc(=O)oc2c1; test: steady-state O-deethylation kinetics, reconstituted purified enzyme; format: biochemical, Oryctolagus cuniculus; conditions: heme

OC[C@H]1O[C@H](O[C@H]2[C@H](O)[C@@H](O)[C@H](OCCCCCC3CCCCC3)O[C@@H]2CO)[C@H](O)[C@@H](O)[C@@H]1O [CYMAL-5, 5-cyclohexyl-1-pentyl-β-D-maltoside]
IC50 (CYP2B6 [1]): 739 ± 42.5 µM

CCOc1ccc2c(C(F)(F)F)cc(=O)oc2c1 [7-EFC, 7-ethoxy-4-(trifluoromethyl)coumarin]
Km (CYP2B6 [2]): 6.2 ± 0.6 µM

B1: CYP2B4 (Oryctolagus cuniculus; H226Y) (protein)
chain: GRLPPGPSPLPVLGNLLQMDRKGLLRSFLRLREKYGDVFTVYLGSRPVVVLCGTDAIREALVDQAEAFSGRGKIAVVDPIFQGYGVIFANGERWRALRRFSLATMRDFGMGKRSVEERIQEEARCLVEELRKSKGALLDNTLLFHSITSNIICSIVFGKRFDYKDPVFLRLLDLFFQSFSLISSFSSQVFELFPGFLKYFPGTHRQIYRNLQEINTFIGQSVEKHRATLDPSNPRDFIDVYLLRMEKDKSDPSSEFHHQNLILTVLSLFFAGTETTSTTLRYGFLLMLKYPHVTERVQKEIEQVIGSHRPPALDDRAKMPYTDAVIHEIQRLGDLIPFGVPHTVTKDTQFRGYVIPKNTEVFPVLSSALHDPRYFETPNTFNPGHFLDANGALKRNEGFMPFSLGKRICLGEGIARTELFLFFTTILQNFSIASPVPPEDIDLTPRESGVGNVPPSYQIRFLAR
Km [3]: 1.03 ± 0.22 µM
kcat [3]: 0.03267 ± 0.000167 s⁻¹
kcat/Km [3]: 31700 M⁻¹ s⁻¹
Km [4]: 28.4 ± 7.6 µM
kcat [4]: 0.123 ± 0.0217 s⁻¹
kcat/Km [4]: 4330 M⁻¹ s⁻¹
